# From patent US20120207760A1 (THERACLONE SCIENCES, published 2012)
# Key:
# [1] = biological target: T1, hemagglutinin (HA) of influenza A/Japan/305/57 H2N2 (Influenza A virus A/Japan/305/1957 …, UniProt P03451 16-562); assay: ELISA, inactivated whole virions coated; transfection supernatant set 1
# [2] = biological target: T2, hemagglutinin (HA) of influenza A/Solomon Islands/3/06 H1N1 (Influenza A virus A/Solomon …); assay: as above
# [3] = biological target: T1, hemagglutinin (HA) of influenza …; assay: ELISA, inactivated whole virions coated; transfection supernatant set 3
# [4] = biological target: T2, hemagglutinin (HA) of influenza …; assay: as above
# [5] = biological target: T1, hemagglutinin (HA) of influenza …; assay: ELISA, inactivated whole virions coated; transfection supernatant set 2
# [6] = biological target: T2, hemagglutinin (HA) of influenza …; assay: as above
# [7] = biological target: T1, hemagglutinin (HA) of influenza …; assay: ELISA, inactivated whole virions coated; transfection supernatant set 4
# [8] = biological target: T2, hemagglutinin (HA) of influenza …; assay: as above
# [9] = biological target: T1, hemagglutinin (HA) of influenza …; assay: ELISA, inactivated whole virions coated; transfection supernatant set 5
# [10] = biological target: T2, hemagglutinin (HA) of influenza …; assay: as above
# [11] = biological target: T2, hemagglutinin (HA) of influenza …; assay: cell-based or functional assay
Binder,OD450 [1] [OD450],OD450 [2] [OD450],OD450 [3] [OD450],OD450 [4] [OD450],OD450 [5] [OD450],OD450 [6] [OD450],OD450 [7] [OD450],OD450 [8] [OD450],OD450 [9] [OD450],OD450 [10] [OD450],% Neutralization [11] [%]
"TCN-504 (3251_K17) (antibody, V domains shown) VH: QVQLQESGPGLVKPSETLSLTCAVSGVSISNIDFYWGWIRQPPGKGLEWIGNIYYTGITFYNPSLSSRVAISIDTSKNQFSLTLTSVTAADTAMYYCARHYGDSEAINDAFDIWGQGTMLTVSS VL: EIVMTQSPATLSVSPGERATLSCRASQSVGNSLAWYQQRPGQAPRLLIYGASTRATGIPPRFSGSGSGTEFTLTISSLQTEDFAVYYCQQYINWRPLSFGGGTKVEIK",3.65,3.65,3.64,3.63,3.62,3.65,3.51,3.52,3.59,3.6,
"TCN-523 (5248_A17) (antibody, V domains shown) VH: QVQLVQSGAEVKKPGSSVKVSCKASGGSFSNYAFSWVRQAPGQGLEWMGGTIPLLGTTNYAQKFQGRVTISADQFTSTAYMELGSLRSEDTAVYYCTRRKMTTAFDSWGQGTLVTVSS VL: QPVLTQPPSASASLGASVTLTCTLSSAYSNYKVDWYQQRPGKGPRFVMRVGTGGIVGSKGDGIPDRFSVLGSGLNRYLTIKNIQEEDESDYHCGADHGSGSNFVSPYVFGGGTKLTVL",1.69,3.59,3.47,3.59,1.39,3.67,1.73,3.43,2.56,3.62,69
